# In PMC3575409, “Identification of a Novel Protein-Protein Interaction Motif Mediating Interaction of GPCR-Associated Sorting Proteins with G Protein-Coupled Receptors” (PLoS ONE, 2013):
# B1: GASP-9: member of the second GASP subfamily, without GASP motif (protein)
# chain: MSRVRDAGCVAAGIVIGAGAWYCVYKYTRGRDQTKKRMAKPKNRAVAGTGARARAGLRAGFTIDLGSGFSPPTPVRAEAEDRAQDEASALDTVGAEAVAPAASSAEAQSGAGSQAQEADGAGVGPKAESVVGAAMASAIAPPPGVTEALGAAEAPAMAGAPKVAEAPREAETSRAAVPPGTVVPTEAAAPTEVTEGPGVAAPTKVAEAPGVASPTEAAEAPVPATPTGAAAPTGAAESPGTSGSPRTAVVPGTSAAKKATPGAHTGAIPKATSATGAVPKGGGKGVTRSRNGGKGKGKKSKVEVDELGMGFRPGDGAAAAAAASANGGQAFLAEVPDSEEGESGWTDTESDSDSEPETQRRGRGRRPVAMQKRPFPYEIDEILGVRDLRKVLALLQKSDDPFIQQVALLTLSNNANYSCNQETIRKLGGLPIIANMINKTDPHIKEKALMAMNNLSENYENQGRLQVYMNKVMDDIMASNLNSAVQVVGLKFLTNMTITNDYQHLLVNSIANFFRLLSQGGGKIKVEILKILSNFAENPDMLKKLLSTQVPASFSSLYNSYVESEILINALTLFEIIYDNLRAEVFNYREFNKGSLFYLCTTSGVCVKKIRALANHHDLLVKVKVIKLVNKF
# modifications: [35S]-methionine labelled
# B2: amino acids 924 to 1395: carboxyl-terminal fragment of GASP-1, contains 2 GASP motifs (protein)
# chain: CCVSKPEDDEEMIVESWFWSRDKAIKETGTVATCESKPENEEGAIVGSWFEAEDEVDNRTDNGSNCGSRTLADEDEAIVGSWFWAGDEAHFESNPSPVFRAICRSTCSVEQEPDPSRRPQSWEEVTVQFKPGPWGRVGFPSISPFRFPKEAASLFCEMFGGKPRNMVLSPEGEDQESLLQPDQPSPEFPFQYDPSYRSVQEIREHLRAKESTEPESSSCNCIQCELKIGSEEFEELLLLMEKIRDPFIHEISKIAMGMRSASQFTRDFIRDSGVVSLIETLLNYPSSRVRTSFLENMIRMAPPYPNLNIIQTYICKVCEETLAYSVDSPEQLSGIRMIRHLTTTTDYHTLVANYMSGFLSLLATGNAKTRFHVLKMLLNLSENLFMTKELLSAEAVSEFIGLFNREETNDNIQIVLAIFENIGNNIKKETVFSDDDFNIEPLISAFHKVEKFAKELQGKTDNQNDPEGDQEN
# modifications: [35S]-methionine labelled
# Tests used:
# [1] = test system: GST-fused TGFβ (type III transforming growth factor β receptor) C-tail; test: GST-pull down, TGFβ C-tail; format: binding
# Excerpt: (§1) cDNAs encoding the cytoplasmic C-tail of 14 GPCRs and 2 one-transmembrane receptors were cloned into the pGEX-2T prokaryotic expression vector downstream the GST sequence. The following pGEX constructs were engineered: pGEX-DOR encoding residues 314–372 of the δ-opioid receptor (referring to Swiss-Prot accession number U10504), pGEX-MOR encoding residues 334–400 of the µ-opioid receptor (L29301), pGEX-KOR encoding residues 326–380 of the κ–opioid receptor (U17298), pGEX-ORL1 encoding residues 315–370 of the opioid receptor-like 1 (X77130), pGEX-M1 encoding residues 414–460 of the muscarinic M1 acetylcholine receptor (X52068), pGEX-M2 encoding residues 436–466 of the muscarinic M2 acetylcholine receptor (M16404), pGEX- ADRB1 encoding residues 373–477 of the β1 adrenergic receptor (J03019), pGEX-ADRB2 encoding residues 322–413 of the β2 adrenergic receptor (P07550), pGEX-CALCR encoding residues 407–490 of the calcitonin receptor (L00587), pGEX-CNR2 encoding residues 295–360 of the cannabinoid type 2 receptor (P34972), pGEX-5HT7 encoding residues 380–445 of the 5-hydroxytryptamine 7 receptor (L21195), pGEX-H2 encoding residues 284–349 of the histamine 2 receptor (S57565), pGEX-TXA2 encoding residues 304–343 of the α isoform of the thromboxane A2 receptor (D38081), pGEX-FZ4 encoding residues 493–537 of the frizzled 4 receptor (AB032417), pGEX-TGFβ encoding residues 805–849 of the type III transforming growth factor b receptor (L07594), pGEX-IGF1 encoding residues 1268–1367 of the insulin growth factor I receptor (X04434). Free GST was produced by using the pGEX-4T3 expression vector without insert. The same plasmid was used to clone the cDNA encoding a central domain of GASP-1, corresponding to amino acids 380 to 1073, downstream the GST sequence. All these plasmids were transformed into the Escherichia coli BL21 strain and expression was induced using 1mM of isopropylthiogalactoside for 2 h at 37°C. Bacteria were then pelleted, resuspended in PBS supplemented with cOmplete protease inhibitors (Roche), lysed at 1.5 kbar using a basic Z cell disrupter (constant system) and finally the lysates were cleared by centrifugation (10,000g, 15 min, 4°C).
# (§2) cDNAs encoding GASP-1 and GASP-2 were cloned into the pcDNA3 eukaryotic expression vectors. cDNAs encoding GASP-3, -6, -7, and -9 were subcloned into pcDNA3.1 vectors. All the clones were controlled by DNA sequencing. The in vitro production was performed by using the TNT Quick-coupled Transcription/Translation T7 kit (Promega) in presence of [^35S]-Methionine according to the instructions from the manufacturer.
# (§3) GST-fusion proteins were immobilized on glutathione-coupled Sepharose beads (GE Healthcare) for 1 h at 4°C and incubated with [^35S]-labelled in vitro translated GASP proteins or their truncated or mutated forms in ice-cold binding buffer containing: 20 mM Tris-HCl pH 7.4, 150 mM NaCl, 1 mM EDTA, 1 mM DTT, 10% glycerol and 1% Triton X-100. The mixture was incubated for 1 h at 4°C with gentle rocking. The beads were washed five times with the same ice-cold buffer, resuspended in 30 µl SDS-PAGE sample buffer, incubated 10 min at 65°C, and pelleted for 60 s at 3000 g. The supernatants were then analyzed by SDS-PAGE, the gels were stained with Coomassie blue to visualize GST-fusion proteins, dried and analyzed using a Phosphor-imager (Personal Molecular Imager FX, Biorad) to visualize [^35S]-labelled GASPs. Quantification was performed with the Quantity One software (Biorad). GST-pull down quantification data were analyzed using GraphPad Prism 4.03 (GraphPad Software). Quantifications presented are means of at least three independent experiments.
# GST-fused DOR C-tail [2] = test: GST-pull down, DOR C-tail; format: binding; details: percent of [35S]-GASP input; pH 7.4, 1 h at 4°C; three independent experiments
# Excerpt: as §1, §2, §3
# GST-fused GPCR C-tails = test: GST-pull down, GPCR C-tails; format: binding; details: twelve GPCR C-tails
# Excerpt: as §1, §2
# as §3, with “experiments. […]” for “experiments.”
# [3] = test system: GST-fused H2 (histamine H2 receptor) C-tail; test: GST-pull down, H2 C-tail; format: binding; details: percent of [35S]-GASP input; pH 7.4, 1 h at 4°C; three independent experiments
# Protocol: (§4) cDNAs encoding the cytoplasmic C-tail of 14 GPCRs and 2 one-transmembrane receptors were cloned into the pGEX-2T prokaryotic expression vector downstream the GST sequence. […]
# as §3, with “The mixture was incubated for 1 h at 4°C with gentle rocking. The beads were washed five times with the same ice-cold buffer, resuspended in 30 µl SDS-PAGE sample buffer, incubated 10 min at 65°C, and pelleted for 60 s at 3000 g.” left out
# GST-fused TXA2 C-tail = test: GST-pull down, TXA2 C-tail; format: binding; details: percent of [35S]-GASP input; pH 7.4, 1 h at 4°C; three independent experiments
# Protocol: as §4
# as §3, with “The mixture was incubated for 1 h at 4°C with gentle rocking. The beads were washed five times with the same ice-cold buffer, resuspended in 30 µl SDS-PAGE sample buffer, incubated 10 min at 65°C, and pelleted for 60 s at 3000 g.” left out
# GST-fused ADRB1 C-tail = test: GST-pull down, ADRB1 C-tail; format: binding
# Excerpt: as §1, §2, §3
# [4] = test system: GST-fused IGF1 (insulin growth factor I receptor) C-tail; test: GST-pull down, IGF1 C-tail; format: binding
# Excerpt: as §1, §2, §3
# GST-fused M1 C-tail = test: GST-pull down, M1 C-tail; format: binding; details: percent of [35S]-GASP input; pH 7.4, 1 h at 4°C; three independent experiments
# Excerpt: as §1, §2, §3
# GST-fused CALCR C-tail = test: GST-pull down, CALCR C-tail; format: binding; details: percent of [35S]-GASP input; pH 7.4, 1 h at 4°C; three independent experiments
# Protocol: as §4
# as §3, with “The mixture was incubated for 1 h at 4°C with gentle rocking. The beads were washed five times with the same ice-cold buffer, resuspended in 30 µl SDS-PAGE sample buffer, incubated 10 min at 65°C, and pelleted for 60 s at 3000 g.” left out
# GST-fused DOR C-tail [5] = details: previous study; ref [6]; cited from earlier work
# Excerpt: We therefore hypothesized that this conserved carboxyl-terminal domain could be critical for the interaction of GASPs with GPCRs.
# [6] = percent of [35S]-GASP input, controls
Molecule,interaction with TGFβ C-tail ([1]; non-GPCR control),"GASP input retained by control TGFβ C-tail [1, 6]",GASP input retained by DOR C-tail (GST-fused DOR C-tail [2]),interaction with GPCR C-tails (GST-fused GPCR C-tails),GASP input retained by H2 C-tail [3],GASP input retained by TXA2 C-tail (GST-fused TXA2 C-tail),"GASP input retained by ADRB1 C-tail (GST-fused ADRB1 C-tail; percent of [35S]-GASP input, pH 7.4, 1 h at 4°C, three independent experiments)",interaction with IGF1 C-tail ([4]; non-GPCR control),"GASP input retained by control IGF1 C-tail [4, 6]",GASP input retained by M1 C-tail (GST-fused M1 C-tail),GASP input retained by CALCR C-tail (GST-fused CALCR C-tail),interaction with the DOR C-tail (GST-fused DOR C-tail [5]),"GASP-1 fragment input retained by ADRB1 C-tail (GST-fused ADRB1 C-tail; percent of input, data not shown)"
B1,No interaction was detected,less than 1%,around 2%,very weak interactions,around 2%,around 2%,around 2%,No interaction was detected,less than 1%,around 2%,around 2%,–,–
B2,–,–,–,–,–,–,–,–,–,–,–,strong interaction,5%
